In US10213515B2, “Glycopeptide for contrast agent targeting cancer cells and contrast agent kit containing the same” (priority 2015, dated 2019):

System: HT-29 cells
Test: Cytotoxicity depending on the concentration of RR-S-Ac3ManNAz
Type: cell-based, human
Conditions: FIG. 4B

SMILES: CC(=O)N[C@@H](CCCCN)C(=O)NCC(=O)N[C@@H](CCCNC(=N)N)C(=O)N[C@@H](CCCNC(=N)N)C(=O)Nc1ccc(COC(=O)OC[C@H]2OC(OC(C)=O)[C@@H](NC(=O)CN=[N+]=[N-])[C@@H](OC(C)=O)[C@@H]2OC(C)=O)cc1 (stereo partly shown) [RR-S-Ac3ManNAz]
- concentration up to which cytotoxicity was not observed: up to 20 μM
